{"source": "paper PMC11911400", "about": "“Mechanism of ASF1 engagement by CDAN1” (Nature Communications, 2025)", "binders": {"B1": {"name": "Strep-tagged CDAN1 (ST-CDAN1), wildtype (natural protein, human)", "chain": "MAAVLESLLREEVSVAAVVRWIARSTQGSEDNAGEAAALSSLRALRKEFVPFLLNFLREQSSRVLPQGPPTPAKTPGASAALPGRPGGPPRGSRGARSQLFPPTEAQSTAAEAPLARRGGRRRGPGPARERGGRGLEEGVSGESLPGAGGRRLRGSGSPSRPSLTLSDPPNLSNLEEFPPVGSVPPGPTGTKPSRRINPTPVSEERSLSKPKTCFTSPPISCVPSSQPSALDTSPWGLGLPPGCRSLQEEREMLRKERSKQLQQSPTPTCPTPELGSPLPSRTGSLTDEPADPARVSSRQRLELVALVYSSCIAENLVPNLFLELFFVFQLLTARRMVTAKDSDPELSPAVLDSLESPLFQSIHDCVFFAVQVLECHFQVLSNLDKGTLKLLAENERLLCFSPALQGRLRAAYEGSVAKVSLVMPPSTQAVSFQPETDNRANFSSDRAFHTFKKQRDVFYEVLREWEDHHEEPGWDFEKGLGSRIRAMMGQLSAACSHSHFVRLFQKQLLQMCQSPGGAGGTVLGEAPDVLSMLGADKLGRLWRLQERLMAPQSSGGPCPPPTFPGCQGFFRDFILSASSFQFNQHLMDSLSLKIQELNGLALPQHEPNDEDGESDVDWQGERKQFAVVLLSLRLLAKFLGFVAFLPYRGPEPPPTGELQDSILALRSQVPPVLDVRTLLQRGLQARRAVLTVPWLVEFLSFADHVVPLLEYYRDIFTLLLRLHRSLVLSQESEGKMCFLNKLLLLAVLGWLFQIPTVPEDLFFLEEGPSYAFEVDTVAPEHGLDNAPVVDQQLLYTCCPYIGELRKLLASWVSGSSGRSGGFMRKITPTTTTSLGAQPSQTSQGLQAQLAQAFFHNQPPSLRRTVEFVAERIGSNCVKHIKATLVADLVRQAESLLQEQLVTQGEEGGDPAQLLEILCSQLCPHGAQALALGREFCQRKSPGAVRALLPEETPAAVLSSAENIAVGLATEKACAWLSANITALIRREVKAAVSRTLRAQGPEPAARGERRGCSRACEHHAPLPSHLISEIKDVLSLAVGPRDPDEGVSPEHLEQLLGQLGQTLRCRQFLCPPAEQHLAKCSVELASLLVADQIPILGPPAQYRLERGQARRLLHMLLSLWKEDFQGPVPLQLLLSPRNVGLLADTRPREWDLLLFLLRELVEKGLMGRMEIEACLGSLHQAQWPGDFAEELATLSNLFLAEPHLPEPQLRACELVQPNRGTVLAQS", "notes": "Codanin-1 (CDAN1), human, 1227 residues; cDNA from Horizon Discovery/Dharmacon, its point mutation S421F corrected; same construct used in Expi293 and in Flp-In 293 T-REx cells; dimer by SEC-MALS and cryo-EM; also called Strep-CDAN1; WT CDAN1; source: Expi293, transiently transfected, in lysate and purified in complexes (anti-FLAG, Strep-Tactin); Flp-In 293 T-REx, transiently transfected, in …"}, "B2": {"name": "FLAG-tagged CDIN1 (F-CDIN1) (natural protein, UniProt Q9Y2V0 1-281, looked up)", "chain": "MILTKAQYDEIAQCLVSVPPTRQSLRKLKQRFPSQSQATLLSIFSQEYQKHIKRTHAKHHTSEAIESYYQRYLNGVVKNGAAPVLLDLANEVDYAPSLMARLILERFLQEHEETPPSKSIINSMLRDPSQIPDGVLANQVYQCIVNDCCYGPLVDCIKHAIGHEHEVLLRDLLLEKNLSFLDEDQLRAKGYDKTPDFILQVPVAVEGHIIHWIESKASFGDECSHHAYLHDQFWSYWNRFGPGLVIYWYGFIQELDCNRERGILLKACFPTNIVTLCHSIA", "notes": "C15orf41); cDNA synthesized by IDT; source: Expi293, transiently transfected, in lysate and purified in complexes (anti-FLAG, Strep-Tactin); not shown: 3xFLAG, N-terminal, kept"}, "B3": {"name": "Strep-CDAN1C (CDAN1 MA3 domain, residues 1008-1227) (domain or fragment, human, UniProt Q8IWY9 1008-1227, looked up)", "chain": "GERRGCSRACEHHAPLPSHLISEIKDVLSLAVGPRDPDEGVSPEHLEQLLGQLGQTLRCRQFLCPPAEQHLAKCSVELASLLVADQIPILGPPAQYRLERGQARRLLHMLLSLWKEDFQGPVPLQLLLSPRNVGLLADTRPREWDLLLFLLRELVEKGLMGRMEIEACLGSLHQAQWPGDFAEELATLSNLFLAEPHLPEPQLRACELVQPNRGTVLAQS", "notes": "also called ST-CDAN1C; CDAN1 C-term; source: Expi293, transiently transfected, purified in complex with F-CDIN1 (anti-FLAG, Strep-Tactin); not shown: 3xStrep-II-TEV, N-terminal, kept"}}, "key": {"[1]": {"target": "the molecule itself", "assay": "SEC-MALS; 200 µg of each purified complex at 5 µM on SRT SEC-300 column, PBS pH 7.4 with 1 mM DTT; DAWN HELEOS II; dn/dc 0.185"}, "[2]": {"target": "the molecule itself", "assay": "cryo-EM structure; tandem-purified C:C:A complex cross-linked with 250 µM BS3, 1 mg/mL; single-particle cryo-EM, 3.0 to 3.5 Å"}, "[3]": {"target": "B1", "assay": "SEC-MALS; 200 µg of each purified complex at 5 µM on SRT SEC-300 column, PBS pH 7.4 with 1 mM DTT; DAWN HELEOS II; dn/dc 0.185", "conditions": "both partners purified"}, "[4]": {"target": "B2", "assay": "cryo-EM structure; purified ST-CDAN1C:F-CDIN1 (C:C) complex, cross-linked with BS3, 0.78 mg/mL; ~6 Å reconstruction, no model built", "conditions": "both partners purified"}}, "data": [{"binder": "B1", "values": [{"measurement": "stoichiometry N", "setting": "[1]", "value": 2, "unit": "CDAN1 per complex"}, {"measurement": "stoichiometry N", "setting": "[2]", "value": 2}]}, {"binder": "B2", "values": [{"measurement": "stoichiometry N", "setting": "[3]", "value": 2, "unit": "CDIN1 per two CDAN1"}]}, {"binder": "B3", "values": [{"measurement": "binding result", "setting": "[4]", "value": "binds"}]}]}
